Laboratory results taken from publication doi:10.1101/2022.07.22.501112, “An unexpected histone chaperone function for the MIER1 histone deacetylase complex” (bioRxiv, 2022).
One block for each binder: values may come before it. Numbered stars: 1 amine (or outer) side, 2 acyl side, 3 side chain; on linkers, the order of the positions; unused ones are H or OH. Square brackets hold non-standard residues; d marks the D form. Ends that are not written are not given here. Lys(Me3) = C[N+](C)(C)CCCC[C@H](N)C(=O)O; Ethylenediamine = C(CN[*:2])N[*:1]; 5‑FAM = fluorescent label

Key:
[1] = target: T1, Full length HDAC1(aa:1-482) (UniProt Q13547 1-482); assay: co-IP + SEC; FLAG-tagged MIER1 construct co-expressed with untagged HDAC1 in HEK293F; anti-FLAG M2 resin, TEV cleavage, Superdex S200 in 25 mM Tris/HCl pH 7.5, 50 mM potassium acetate, 0.5 mM TCEP; SDS-PAGE, bands identified by MS; details: partners not purified
T1 construct: also called histone deacetylase 1
T1 sequence (Q13547 whole entry): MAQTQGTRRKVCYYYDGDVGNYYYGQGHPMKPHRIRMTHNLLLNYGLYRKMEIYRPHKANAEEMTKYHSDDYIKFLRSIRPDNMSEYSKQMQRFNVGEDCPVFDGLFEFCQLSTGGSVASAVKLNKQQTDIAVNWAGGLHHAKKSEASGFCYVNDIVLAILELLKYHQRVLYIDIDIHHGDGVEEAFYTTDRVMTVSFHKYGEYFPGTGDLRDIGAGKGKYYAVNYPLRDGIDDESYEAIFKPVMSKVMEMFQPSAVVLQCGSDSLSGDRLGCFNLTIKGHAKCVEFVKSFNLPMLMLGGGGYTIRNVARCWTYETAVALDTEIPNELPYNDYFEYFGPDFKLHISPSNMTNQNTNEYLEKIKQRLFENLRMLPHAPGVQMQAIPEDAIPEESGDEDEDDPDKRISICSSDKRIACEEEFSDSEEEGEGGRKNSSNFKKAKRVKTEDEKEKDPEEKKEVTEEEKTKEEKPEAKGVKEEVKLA

[2] = target: T2, E. coli expressed BAHD1(aa:588-780) (UniProt Q8TBE0 588-780); assay: fluorescence polarisation; 5 nM 5-FAM labelled histone peptide, BAHD1(aa:588-780) 0-142 uM, 25 mM Tris/Cl pH 7.5, 50 mM NaCl, 15 mins at 37 C; one-site binding model; details: both partners purified
T2 construct: BAHD1, BAH domain, residues 588-780; also called BAH domain of BAHD1; source: E. coli expressed
T2 sequence (looked up): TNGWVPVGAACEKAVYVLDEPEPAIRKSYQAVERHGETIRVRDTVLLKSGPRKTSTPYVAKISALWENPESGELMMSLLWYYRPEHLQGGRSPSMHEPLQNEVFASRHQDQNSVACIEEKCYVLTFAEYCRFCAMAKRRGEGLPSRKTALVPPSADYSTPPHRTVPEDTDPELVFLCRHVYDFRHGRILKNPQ

binding result [1]: binds
B1: FLAG-tagged MIER1(aa:171-350), ELM2-SANT domain (domain or fragment, human, UniProt Q8N108 171-350, looked up)
chain: DYIPSEDWKKEIMVGSMFQAEIPVGICRYKENEKVYENDDQLLWDPEYLPEDKVIIFLKDASRRTGDEKGVEAIPEGSHIKDNEQALYELVKCNFDTEEALRRLRFNVKAAREELSVWTEEECRNFEQGLKAYGKDFHLIQANKVRTRSVGECVAFYYMWKKSERYDFFAQQTRFGKKKY
notes: Captured on anti-FLAG resin by the tag; the tag was then cut off by TEV protease before gel filtration and SEC-MALS (21 kDa counted for the fragment); also called MIER ELM2-SANT; source: HEK293F, co-transfected with HDAC1; anti-FLAG resin, TEV cleavage, Superdex S200; not shown: 10xHis-3xFLAG, N-terminal, kept

binding result [2]: binds
B2: H3 16-35 K27me3 peptide (peptide)
peptide: PRKQLATKAAR[Lys(Me3)]SAPATGG-{Ethylenediamine-4‑Abu-5‑FAM}
notes: The twelfth letter (K27) is trimethyl-lysine; also called H3 histone tail bearing a K27me3 modification; source: synthetic peptide, bought: Cambridge Research Biochemicals
